These results are taken from article PMC1331985 (Nucleic Acids Research, 2006).

First the molecules themselves.
B1: Est3p-K71A (natural protein, S. cerevisiae, UniProt Q03096 1-181, looked up)
chain: MPKVILESHSKPTDSVFLQPWIKALIEDNSEHDQYHPSGHVIPSLTKQDLALPHMSPTILTNPCHFAKITAFYNVCDYKVYASIRDSSHQILVEFSQECVSNFERTHNCRITSETTNCLMIIGDADLVYVTNSRAMSHFKICLSNISSKEIVPVLNVNQATIFDIDQVGSLSTFPFVYKYL
B2: Est3p-T115A (natural protein, S. cerevisiae, UniProt Q03096 1-181, looked up)
chain: MPKVILESHSKPTDSVFLQPWIKALIEDNSEHDQYHPSGHVIPSLTKQDLALPHMSPTILTNPCHFAKITKFYNVCDYKVYASIRDSSHQILVEFSQECVSNFERTHNCRITSEATNCLMIIGDADLVYVTNSRAMSHFKICLSNISSKEIVPVLNVNQATIFDIDQVGSLSTFPFVYKYL
B3: Est3p-F72A (natural protein, S. cerevisiae, UniProt Q03096 1-181, looked up)
chain: MPKVILESHSKPTDSVFLQPWIKALIEDNSEHDQYHPSGHVIPSLTKQDLALPHMSPTILTNPCHFAKITKAYNVCDYKVYASIRDSSHQILVEFSQECVSNFERTHNCRITSETTNCLMIIGDADLVYVTNSRAMSHFKICLSNISSKEIVPVLNVNQATIFDIDQVGSLSTFPFVYKYL
B4: Est3p-K3A (natural protein, S. cerevisiae, UniProt Q03096 1-181, looked up)
chain: MPAVILESHSKPTDSVFLQPWIKALIEDNSEHDQYHPSGHVIPSLTKQDLALPHMSPTILTNPCHFAKITKFYNVCDYKVYASIRDSSHQILVEFSQECVSNFERTHNCRITSETTNCLMIIGDADLVYVTNSRAMSHFKICLSNISSKEIVPVLNVNQATIFDIDQVGSLSTFPFVYKYL
B5: Est3p-S87A (natural protein, S. cerevisiae, UniProt Q03096 1-181, looked up)
chain: MPKVILESHSKPTDSVFLQPWIKALIEDNSEHDQYHPSGHVIPSLTKQDLALPHMSPTILTNPCHFAKITKFYNVCDYKVYASIRDASHQILVEFSQECVSNFERTHNCRITSETTNCLMIIGDADLVYVTNSRAMSHFKICLSNISSKEIVPVLNVNQATIFDIDQVGSLSTFPFVYKYL
B6: Est3p-E104A (natural protein, S. cerevisiae, UniProt Q03096 1-181, looked up)
chain: MPKVILESHSKPTDSVFLQPWIKALIEDNSEHDQYHPSGHVIPSLTKQDLALPHMSPTILTNPCHFAKITKFYNVCDYKVYASIRDSSHQILVEFSQECVSNFARTHNCRITSETTNCLMIIGDADLVYVTNSRAMSHFKICLSNISSKEIVPVLNVNQATIFDIDQVGSLSTFPFVYKYL

The data set deals with the molecule itself. The data set is described as follows: SEC. On the technique in general: Size exclusion chromatography separates by hydrodynamic size, large species first.
On to B1, for which the binding result was “binds”.

Turning to B2, the binding result is on record as “binds”.

As for B3, the binding result was “binds”.

Consider B4, for which the binding result is listed as “binds”.

As for B5, the binding result was “binds”.

On to B6, for which the binding result is given as “binds”.
